Test results taken from the nanobody polyreactivity screen of Harvey et al. (2022).

Experiment: yeast display, Sf9 membrane polyspecificity reagent, FACS + sequencing; frameworks hold sequencing errors
Procedure, shortened: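 In a synthetic yeast display library (Saccharomyces cerevisiae BJ5465), nanobody expression was induced with galactose for 36–48 hours. FACS gates were set low and high (top ~1%) using anti-HA fluorescence for expression and streptavidin fluorescence for binding of the Sf9 membrane reagent. Each polyreactivity label is drawn from the gate of origin.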

| Sequence | polyreactivity (PSR sort gate) |
| --- | --- |
| QVQLEESGGGLGQAGGSLRLTCAASGSIFDTYTMGWYRQATRIEWELVAAITSGTTTTYADSVKGRFTISRDNGLNTVYLKINSLNPEDTAVYYCGARTSGSFDYWGQGPQVTVSS | low polyreactivity |
| QVQLEESGGGLLKEGGSLRLSCAASGRLFYGYTIGRSRQAPGKERELVAAISRNGGSTYYADSVKGRFTISRDNAKNTVYFHMNSLKTEDSAVYYCNAVFSRGYVIKPYDYWGQGTQVTVSS | high polyreactivity |
| QVQLEESGGGLVHAGGSLRLSCAASGFIFKANAMGWYRQAPGKEREFVASISSSGGSTYYADSVKGRFTISRDNAKNTVYLHMNSLKPEDTAVYYCAAYTGYRHSRINLGYWGQGTQVTVSS | high polyreactivity |
| QVQLEESGGGLVHAGGSLRLSCAASGFTCDNYAMGWYRQAPGKERELVAAISNSGGRTYYADSVKGRFTISRDNAKNTVYLQMNSLKPEDTAVYYCTIFKDFDYWGQGTQVTVSS | high polyreactivity |
| QVQLEESGGGLVKAGGSLRLTCAASGIIFVEYAMGWYRQAPGKERELVARIRYSGGSTYYADSVKGRFTISRDNAKNTVYLQMNSLQPEDTAVYYCNALLPYIYDYWGKGTQVTVSS | low polyreactivity |
| QVQLEESGGGLVPAGGILRLSCAASGSIFSPNAIGWYRQAAGKEMELDASISSRGGSTYYADSVKGRFNISRDYAKNTVYLKMNSLKPEDTAVYYCAAAVQTRRGTRFDYWGQGTQVTVSS | low polyreactivity |
| QVQLEESGGGLVQAAGSLRLSSAASGSTFRYYAMGWYRQAPGKDRELVAAITRSRGSTYYADSVKGRFTISRDKAKNHVYLQMNSVKQEDTEVYYCAARGQTGYYSGVGYWGQGTQVTVSS | high polyreactivity |
| QVQLEESGGGLVQAGASLRLSCAASGRTFGSYAMGWYRQAPGKERELVAAISLSAGSTYYADSVKGRFTISRDNAKNTVYLQMNSLKPEDTAVYYCAAGTQWYSHVFIYYYWGQGTQVTVSS | low polyreactivity |
| QVQLEESGGGLVQAGGCLRLSCAASGSIFEWYAMGWYRQAPGKERELVADISSVGSTYYADSVKGRFTISRDNAKNTVYLQMNSLKPEDTAVYYCNTSYIIWYDSWGQGTQVTVSS | low polyreactivity |
| QVQLEESGGGLVQAGGRLRLRCAASATYRYYGMGWYRQQPGNERELVAAISRSGSRTYYADSVKGRFTISRDNAKNTVYLQMNSLKPEESAFYYCAASSVYYGYDYWGQGTQVTVSS | high polyreactivity |
| QVQLEESGGGLVQAGGRLRLSCAASGFTFGRYTMGWYRHAPGKERELVAAITWTGGRTYYADSVKGRFTISRDNAKNTVYLQMNSLKPEDTAVYYCAADTTIIIAQSEDDLWGQGTQVTVSS | high polyreactivity |
| QVQLEESGGGLVQAGGRLRLSCAASGSIFTGYTMGWYRQAPGKERELVASISRRGGRTYYADSVKGRFTISRDNAKNTVYLQMNSLKPEDTAVYYCAVDRVPWRYQDSYNYWGQGTQVTVSS | high polyreactivity |
| QVQLEESGGGLVQAGGRLRLSCAASGSTFVDYAMGWYRQAPGKQRELVAAISWRGGSTYYADSVKGRFTISRDNAKKTVYLQMNSLKPEDTAVYYCAAEHSGRSPYGYGYWGQGTQVTVSS | high polyreactivity |
| QVQLEESGGGLVQAGGRLRLTCAASGRTFFGYPMGWYRQAPGKERELVAAITSSGGRTYYADSVKGRFTISRDNPKNTDYLQMNSLKPEDTAVYYCAARRYRLSTPEFNYWGQGTQVTVSS | high polyreactivity |
| QVQLEESGGGLVQAGGSLRISCAASGKIFSYNAMGWYRHAPGKERELVAAISRSGGSTYYADSVKGRFTISRDNAKNTVYLQMNSLKPEDTAVYYCAADWRGRKYDYWGQVTQVTVSS | high polyreactivity |
| QVQLEESGGGLVQAGGSLRISCAASGRTFYVNAMGRSRQAPGKERELVAAIRYSDGRTYYADSVKGRFTISRDNAKNTVYLQMNSLKPEDTAVYYCAADTRFISRENYWGQGTQVTVSS | high polyreactivity |
| QVQLEESGGGLVQAGGSLRISCAAYGSTFYYNVMGWYRQAPGKERELVAAITWRGDITYYADSVKGRFTISRDNAKYNVYLQMKCLKPEDTAVFYCAKRYQPSYRSNFWGEGTQVTVSS | low polyreactivity |
| QVQLEESGGGLVQAGGSLRLICAASGFIFLYYAMGWYRQAPGKERELVAAIDYSGGSTNYADSVKGRFTISRDNAKNTVYLQMHSLKPEDTAVYFFNAEYTWHRGYDYWGQGTQVTVSS | low polyreactivity |
| QVQLEESGGGLVQAGGSLRLICAASGLTFPPNSMRWYRQATGKERELVADSGGSTNYADSVKGRFTISRDNAKNNVYLQMNSLKPEDTAVYYCAAPPYSDGQWDDYWGQGTQVTVSS | low polyreactivity |
| QVQLEESGGGLVQAGGSLRLICAASGLTFYSYAMGWYRQAPGKERELVATIRWSGGSTYYADSVKGRFTISRDNANNTVYLQMNSLKPEDTAVYYCNKRRYPVGSLFDYWGQGTQVTVSS | low polyreactivity |
| QVQLEESGGGLVQAGGSLRLICAASGSTFYPNAMGWYRQAPGKERELVAAITDSVGTTNYADSVKGRFTISRDNAKNTVYLQMNSLKPEDTAVYYCAKVKSYWNGYRYYYWGHGTQVTVSS | low polyreactivity |
| QVQLEESGGGLVQAGGSLRLSCAASGAIFDGYGMGGYSQAPGQERELVAAIRWGDGITYYADSVKGRFTISRDNAKTTVYLQMNRLKPDDTAVYYCAAVQHGHEPRVQASYDYWGQGTQVTVSS | low polyreactivity |

| Sequence | polyreactivity (PSR sort gate) |
| --- | --- |
| QVQLEESGGGLVQAGGSLRLSCAASGFIFGKNDMGWYRQAPWKERELVAAITIGGSTNYADSVKGRFTISRDNAKNTVYLQMNSLKPEDTAVYYCNADSYHYGTSLYNYWGQGTQVTVSS | low polyreactivity |
| QVQLEESGGGLVQAGGSLRLSCAASGFIFLLNFMGWYRQAPAKDRELVAGNRSSTASTYYADSVKGRFTISRDNAKNTFYLEMNCLKPEDTAVSYCAAVSGWQYEYYSWGQGTQVTVSS | low polyreactivity |
| QVQLEESGGGLVQAGGSLRLSCAASGFIFTPYAMGWYRQAPGKERELVAAISRSGGSTYYADSVKGRFTISRDNAKNTVYLQMNSLKPEDTAVYYCAADVYRTAYYYGSYYWGQGTQVTVSS | high polyreactivity |
| QVQLEESGGGLVQAGGSLRLSCAASGFIFYIYAMGWYRQAPGKERELVAAITSGGSTNYADSVKGRFTITRDNAKNTVYLQMNSLKPEDTAVYYCAADSYYGYDYWGQVTQVTVSS | low polyreactivity |
| QVQLEESGGGLVQAGGSLRLSCAASGFIITGYTMGWYRQAPGKERELVAVISYSGGNTYYADSVKGRFTSSRDNEKNTVYLQMISVKPDYTAVYYCNKLTYKGYEYWGQGTQVNVSS | high polyreactivity |
| QVQLEESGGGLVQAGGSLRLSCAASGFIITWYTMGWYRQAPGKERELVAAITSGGNTNYADSVKGRFTISRDNAKNTVYLQMNCLKPEDTAVYYCARGYLASRLKFAKYDYWGQGTQVTVSS | high polyreactivity |
| QVQLEESGGGLVQAGGSLRLSCAASGFTFFQYAMGWYRQAPGKERELVAAITSGVSTNYADSVKGRFTISRDNAKNTVYVQMNSLKPEDTAVYYCAADPRSLQSWRGEFAGEYWGQGTQVTVSS | low polyreactivity |
| QVQLEESGGGLVQAGGSLRLSCAASGFTFFSYYAMGWYIQAPGKERELVATITSGASTNYADSVKGRFTISRDNAKNTVYLQMNSLKPEDTAVYYCAAAYFYWRVDKYYYWGQGTQVTVSS | low polyreactivity |
| QVQLEESGGGLVQAGGSLRLSCAASGFTFGGYAMGWYRQAPGKERELVAAITGSGGNTFYADSVKGRFTISRDYAKNTVYLQMNCLKPEDTAVYYCAKSWYPWSSYGYYRRYDSWGQGTQVTLSS | low polyreactivity |
| QVQLEESGGGLVQAGGSLRLSCAASGFTFLYNAMGWYRQAPGKERELVASINSGGSTNYADSVKGRVTISRDNAKNTVYLQMNSLKPEDTAVYYCNAKRHVRKGDYWGQGTQVTVSS | low polyreactivity |
| QVQLEESGGGLVQAGGSLRLSCAASGFTFNLYTMGWYRQAPGKERELVAAISRSGDRTYYADSVKGRFTISRDNAKNTVYLQMNSLKPEDTAVYYCAARSYRPTRGDYWGQGTQVTVSS | high polyreactivity |
| QVQLEESGGGLVQAGGSLRLSCAASGFTFSLYAMGWYRQAPGKERELVAAISTSGGSTYYADSVKGRFTISRDNAKNTVYLQMNSLKPEDTAVYYCAATTVYSRAYYYVTYWYGYWGQGTQVTVSS | low polyreactivity |
| QVQLEESGGGLVQAGGSLRLSCAASGFTFYGNAMGWYRQAPGKERELVATIRYRGGRTYYADSVKGRFTISRDNAKNTVYLQMNSLKPEDTAVYYCNRVGYQYGSDQEDDYWGQGTQVTVSS | high polyreactivity |
| QVQLEESGGGLVQAGGSLRLSCAASGFTIIRYAMGWYRQAPGKERELVATISRRGASTYYADSVKGRFTISRANAKNTVYLQMNSLKPEDTAVYYCAKRTYSRKFRGAYNYWGQGTQVTVSS | high polyreactivity |
| QVQLEESGGGLVQAGGSLRLSCAASGFTISYYAMGWYRQAPGKERELVAAISSSGGSTYYADSVKGRFTISRDNAKNTVYLQMNSLKPDDTAVYYCAAGWPEYLRDGDYWGQGTQVTVSS | low polyreactivity |
| QVQLEESGGGLVQAGGSLRLSCAASGIIFAANAMGWYRQAPGKERELVAAISKNGGITYYADSVKGRFTISRDNAKNTVYLQMNSLKPEDTAVYYCAARWRQTRRYYYWGQGTQVTVSS | high polyreactivity |
| QVQLEESGGGLVQAGGSLRLSCAASGIIFIDYAMGWYRQAPGKERELVAAISNGGSTYYADSVKGSFTISRDNAKNTVYLQMNSLKPEDTEVYYCAAGGALASHWSKKLYDYWGQGTQVTVSS | low polyreactivity |
| QVQLEESGGGLVQAGGSLRLSCAASGIIFPVYAMGWYRQAPGKERELVAAITRSGGITYYADSVKGRFTISRDNEKNTVYLQMNSLKPEDTAVYDCAASVYSLSRRSWMDYWGQGTQVTVSS | low polyreactivity |
| QVQLEESGGGLVQAGGSLRLSCAASGIIFQRNDMGWYRQAPGKERELVANIRDGGITYADSVKGRFTISRDNAKNTVYLQMNSLKPEDTAVYYCARDDTSPGYCDQSSNAAYYYWGQGTQVTVSS | low polyreactivity |
| QVQLEESGGGLVQAGGSLRLSCAASGIIFRGNAMGWYIQAPGKERELFAAIRFSGGSTYYADSVKGRFTISRDNAKNTVYLQMNSLKPEDTAVYYCAATRRRYGSTTSEYYYWGQGTQVTVSS | high polyreactivity |
| QVQLEESGGGLVQAGGSLRLSCAASGIIFTTYDMGWYRQATGKERELVAAISSSTTNTYYADSVKGRFTISRDNAKNTVYLQMNSLKPEDTAVYYCAAPYKRNAGFDYWGQGTQVTVSS | low polyreactivity |
